# Target: Ssa1 Hsp70 (S. cerevisiae, UniProt P10591 1-642)
# Assay: ELISA
# Ssa1 Hsp70, sequence (P10591 whole entry): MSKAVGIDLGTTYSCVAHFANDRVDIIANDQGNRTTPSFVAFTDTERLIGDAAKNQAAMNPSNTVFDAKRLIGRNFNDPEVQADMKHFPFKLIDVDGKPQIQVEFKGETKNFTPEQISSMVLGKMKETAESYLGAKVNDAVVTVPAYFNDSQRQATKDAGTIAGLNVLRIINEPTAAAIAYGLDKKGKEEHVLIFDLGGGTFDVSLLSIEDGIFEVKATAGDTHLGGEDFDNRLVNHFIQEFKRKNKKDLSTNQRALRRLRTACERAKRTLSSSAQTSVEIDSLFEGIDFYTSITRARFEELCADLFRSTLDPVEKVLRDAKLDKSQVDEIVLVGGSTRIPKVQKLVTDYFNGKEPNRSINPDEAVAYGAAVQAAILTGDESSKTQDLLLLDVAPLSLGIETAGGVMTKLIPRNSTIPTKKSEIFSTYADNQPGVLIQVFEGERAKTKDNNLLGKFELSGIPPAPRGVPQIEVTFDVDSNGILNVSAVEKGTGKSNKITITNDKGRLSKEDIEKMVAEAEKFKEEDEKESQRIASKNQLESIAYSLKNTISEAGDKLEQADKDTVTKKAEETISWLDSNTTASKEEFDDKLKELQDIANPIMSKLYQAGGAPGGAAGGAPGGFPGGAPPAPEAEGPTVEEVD
row,binding result,Binder
1,binds,"Sis1 single alteration variant K199N (natural protein, S. cerevisiae, UniProt P25294 1-352, looked up) MVKETKLYDLLGVSPSANEQELKKGYRKAALKYHPDKPTGDTEKFKEISEAFEILNDPQKREIYDQYGLEAARSGGPSFGPGGPGGAGGAGGFPGGAGGFSGGHAFSNEDAFNIFSQFFGGSSPFGGADDSGFSFSSYPSGGGAGMGGMPGGMGGMHGGMGGMPGGFRSASSSPTYPEEETVQVNLPVSLEDLFVGKKNSFKIGRKGPHGASEKTQIDIQLKPGWKAGTKITYKNQGDYNPQTGRRKTLQFVIQEKSHPNFKRDGDDLIYTLPLSFKESLLGFSKTIQTIDGRTLPLSRVQPVQPSQTSTYPGQGMPTPKNPSQRGNLIVKYKVDYPISLNDAQKRAIDENF"
2,binds,"Sis1 single alteration variant K202N (natural protein, S. cerevisiae, UniProt P25294 1-352, looked up) MVKETKLYDLLGVSPSANEQELKKGYRKAALKYHPDKPTGDTEKFKEISEAFEILNDPQKREIYDQYGLEAARSGGPSFGPGGPGGAGGAGGFPGGAGGFSGGHAFSNEDAFNIFSQFFGGSSPFGGADDSGFSFSSYPSGGGAGMGGMPGGMGGMHGGMGGMPGGFRSASSSPTYPEEETVQVNLPVSLEDLFVGKKKSFNIGRKGPHGASEKTQIDIQLKPGWKAGTKITYKNQGDYNPQTGRRKTLQFVIQEKSHPNFKRDGDDLIYTLPLSFKESLLGFSKTIQTIDGRTLPLSRVQPVQPSQTSTYPGQGMPTPKNPSQRGNLIVKYKVDYPISLNDAQKRAIDENF"
3,binds,"Sis1 single alteration variant K214N (natural protein, S. cerevisiae, UniProt P25294 1-352, looked up) MVKETKLYDLLGVSPSANEQELKKGYRKAALKYHPDKPTGDTEKFKEISEAFEILNDPQKREIYDQYGLEAARSGGPSFGPGGPGGAGGAGGFPGGAGGFSGGHAFSNEDAFNIFSQFFGGSSPFGGADDSGFSFSSYPSGGGAGMGGMPGGMGGMHGGMGGMPGGFRSASSSPTYPEEETVQVNLPVSLEDLFVGKKKSFKIGRKGPHGASENTQIDIQLKPGWKAGTKITYKNQGDYNPQTGRRKTLQFVIQEKSHPNFKRDGDDLIYTLPLSFKESLLGFSKTIQTIDGRTLPLSRVQPVQPSQTSTYPGQGMPTPKNPSQRGNLIVKYKVDYPISLNDAQKRAIDENF"

# From PMC4357533 (Journal of molecular biology, 2015)
